# Values quoted from earlier work in article PMC4070987.
# Target: alkaline protease inhibitor (Pseudomonas aeruginosa) (UniProt Q03026)
# UniProt Q03026, sequence (Q03026 27-131): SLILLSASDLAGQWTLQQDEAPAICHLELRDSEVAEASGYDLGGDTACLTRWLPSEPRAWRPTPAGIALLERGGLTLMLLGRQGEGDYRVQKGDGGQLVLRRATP
substance,measurement,value
alkaline protease (AP) (from UniProt Q03023),Kd,4 pM
